{"source": "IntAct's records for PubMed 35512704", "parents": {"B1": {"name": "Speckle-type POZ protein (Homo sapiens), O43791 (parent)", "chain": "MSRVPSPPPPAEMSSGPVAESWCYTQIKVVKFSYMWTINNFSFCREEMGEVIKSSTFSSGANDKLKWCLRVNPKGLDEESKDYLSLYLLLVSCPKSEVRAKFKFSILNAKGEETKAMESQRAYRFVQGKDWGFKKFIRRDFLLDEANGLLPDDKLTLFCEVSVVQDSVNISGQNTMNMVKVPECRLADELGGLWENSRFTDCCLCVAGQEFQAHKAILAARSPVFSAMFEHEMEESKKNRVEINDVEPEVFKEMMCFIYTGKAPNLDKMADDLLAAADKYALERLKVMCEDALCSNLSVENAAEILILADLHSADQLKTQAVDFINYHASDVLETSGWKSMVVSHPHLVAEAYRSLASAQCPFLGPPRKRLKQS", "partner": "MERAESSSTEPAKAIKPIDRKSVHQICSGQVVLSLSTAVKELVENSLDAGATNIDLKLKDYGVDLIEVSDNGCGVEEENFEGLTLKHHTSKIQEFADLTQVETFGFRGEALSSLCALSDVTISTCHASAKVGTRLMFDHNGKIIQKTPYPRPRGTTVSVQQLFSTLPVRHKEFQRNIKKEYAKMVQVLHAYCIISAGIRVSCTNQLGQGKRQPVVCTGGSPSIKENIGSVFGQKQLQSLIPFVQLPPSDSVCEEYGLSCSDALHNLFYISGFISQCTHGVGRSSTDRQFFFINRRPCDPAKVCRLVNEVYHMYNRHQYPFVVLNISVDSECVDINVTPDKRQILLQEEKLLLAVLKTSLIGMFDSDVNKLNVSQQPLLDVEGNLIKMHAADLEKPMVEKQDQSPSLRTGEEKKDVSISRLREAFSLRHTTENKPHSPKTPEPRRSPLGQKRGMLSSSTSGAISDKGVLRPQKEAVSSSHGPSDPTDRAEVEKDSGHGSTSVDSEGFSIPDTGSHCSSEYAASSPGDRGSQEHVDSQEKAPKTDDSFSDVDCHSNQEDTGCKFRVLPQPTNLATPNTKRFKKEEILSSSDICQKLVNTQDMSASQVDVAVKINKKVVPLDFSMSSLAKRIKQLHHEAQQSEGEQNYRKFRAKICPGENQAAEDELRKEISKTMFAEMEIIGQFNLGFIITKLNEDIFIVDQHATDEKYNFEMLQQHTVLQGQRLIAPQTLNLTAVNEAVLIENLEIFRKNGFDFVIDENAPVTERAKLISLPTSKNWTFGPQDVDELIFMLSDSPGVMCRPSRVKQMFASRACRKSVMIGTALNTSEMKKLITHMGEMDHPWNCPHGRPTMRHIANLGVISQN"}, "B2": {"name": "Speckle-type POZ protein (Homo sapiens), O43791 (parent)", "chain": "B1 chain", "partner": "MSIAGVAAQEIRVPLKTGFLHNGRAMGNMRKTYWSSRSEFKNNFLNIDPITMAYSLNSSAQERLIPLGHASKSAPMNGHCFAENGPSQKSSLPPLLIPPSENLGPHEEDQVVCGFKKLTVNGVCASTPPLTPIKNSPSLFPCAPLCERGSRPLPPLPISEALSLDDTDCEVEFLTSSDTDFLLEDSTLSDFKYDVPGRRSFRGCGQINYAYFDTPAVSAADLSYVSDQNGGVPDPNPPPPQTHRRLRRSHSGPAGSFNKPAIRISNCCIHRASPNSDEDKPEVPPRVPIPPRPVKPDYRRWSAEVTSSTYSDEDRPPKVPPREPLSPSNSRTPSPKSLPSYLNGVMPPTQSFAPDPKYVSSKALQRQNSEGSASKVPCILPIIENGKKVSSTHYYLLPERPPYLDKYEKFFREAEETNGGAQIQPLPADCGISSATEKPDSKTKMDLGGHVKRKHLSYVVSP"}, "B3": {"name": "Speckle-type POZ protein (Homo sapiens), O43791 (parent)", "chain": "B1 chain", "partner": "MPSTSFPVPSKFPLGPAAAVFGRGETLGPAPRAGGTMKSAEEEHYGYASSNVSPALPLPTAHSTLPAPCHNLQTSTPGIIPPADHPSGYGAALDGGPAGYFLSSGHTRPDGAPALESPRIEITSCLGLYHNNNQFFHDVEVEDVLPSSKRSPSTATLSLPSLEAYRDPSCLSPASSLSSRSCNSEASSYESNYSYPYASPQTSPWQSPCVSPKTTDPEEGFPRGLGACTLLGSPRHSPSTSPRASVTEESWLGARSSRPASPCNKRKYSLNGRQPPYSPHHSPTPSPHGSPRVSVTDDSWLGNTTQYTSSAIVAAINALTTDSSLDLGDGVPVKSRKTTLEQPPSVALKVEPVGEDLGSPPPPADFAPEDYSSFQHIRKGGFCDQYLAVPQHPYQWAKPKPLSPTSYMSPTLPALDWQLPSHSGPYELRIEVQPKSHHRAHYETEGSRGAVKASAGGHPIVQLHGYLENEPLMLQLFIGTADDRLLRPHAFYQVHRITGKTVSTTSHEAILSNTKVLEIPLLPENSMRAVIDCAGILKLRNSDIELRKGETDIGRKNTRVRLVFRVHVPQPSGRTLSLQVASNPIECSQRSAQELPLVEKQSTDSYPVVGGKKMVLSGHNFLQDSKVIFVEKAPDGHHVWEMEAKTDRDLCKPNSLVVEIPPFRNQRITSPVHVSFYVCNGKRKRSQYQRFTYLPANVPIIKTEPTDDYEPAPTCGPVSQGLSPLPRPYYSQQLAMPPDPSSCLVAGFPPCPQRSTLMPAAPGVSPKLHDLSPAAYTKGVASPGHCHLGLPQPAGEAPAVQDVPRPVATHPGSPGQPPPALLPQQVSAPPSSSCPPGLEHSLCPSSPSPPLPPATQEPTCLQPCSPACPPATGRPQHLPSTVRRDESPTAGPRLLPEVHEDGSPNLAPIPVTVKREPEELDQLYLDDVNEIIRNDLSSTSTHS"}, "B4": {"name": "Speckle-type POZ protein (Homo sapiens), O43791 (parent)", "chain": "B1 chain", "partner": "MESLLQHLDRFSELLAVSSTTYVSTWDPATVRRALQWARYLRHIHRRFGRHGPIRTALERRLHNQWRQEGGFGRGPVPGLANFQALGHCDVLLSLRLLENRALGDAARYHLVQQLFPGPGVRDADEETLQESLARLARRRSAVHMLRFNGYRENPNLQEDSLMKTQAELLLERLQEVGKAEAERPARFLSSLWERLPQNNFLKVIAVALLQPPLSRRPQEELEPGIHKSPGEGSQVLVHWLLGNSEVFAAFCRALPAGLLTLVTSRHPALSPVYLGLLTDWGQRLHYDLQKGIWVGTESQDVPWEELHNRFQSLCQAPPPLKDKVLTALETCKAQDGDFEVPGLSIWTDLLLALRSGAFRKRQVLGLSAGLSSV"}, "B5": {"name": "Speckle-type POZ protein (Homo sapiens), O43791 (parent)", "chain": "B1 chain", "partner": "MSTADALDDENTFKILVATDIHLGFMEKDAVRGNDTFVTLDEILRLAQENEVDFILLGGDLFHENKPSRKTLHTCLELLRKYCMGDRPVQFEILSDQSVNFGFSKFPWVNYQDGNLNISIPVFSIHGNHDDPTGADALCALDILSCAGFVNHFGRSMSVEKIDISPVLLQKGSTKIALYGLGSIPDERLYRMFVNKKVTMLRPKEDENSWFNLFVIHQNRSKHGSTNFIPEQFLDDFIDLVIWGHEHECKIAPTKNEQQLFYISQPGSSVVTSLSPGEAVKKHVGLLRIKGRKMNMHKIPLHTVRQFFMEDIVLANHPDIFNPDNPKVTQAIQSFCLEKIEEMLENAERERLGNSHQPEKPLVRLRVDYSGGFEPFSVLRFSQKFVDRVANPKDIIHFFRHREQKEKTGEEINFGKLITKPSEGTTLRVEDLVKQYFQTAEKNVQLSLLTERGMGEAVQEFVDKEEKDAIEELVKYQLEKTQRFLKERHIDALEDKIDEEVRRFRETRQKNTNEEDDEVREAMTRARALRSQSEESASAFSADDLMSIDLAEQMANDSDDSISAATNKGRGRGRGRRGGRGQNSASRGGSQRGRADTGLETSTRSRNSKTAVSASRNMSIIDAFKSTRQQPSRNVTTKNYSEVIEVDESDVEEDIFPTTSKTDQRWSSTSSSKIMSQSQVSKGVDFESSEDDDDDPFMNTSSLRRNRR"}, "B6": {"name": "Speckle-type POZ protein (Homo sapiens), O43791 (parent)", "chain": "B1 chain", "partner": "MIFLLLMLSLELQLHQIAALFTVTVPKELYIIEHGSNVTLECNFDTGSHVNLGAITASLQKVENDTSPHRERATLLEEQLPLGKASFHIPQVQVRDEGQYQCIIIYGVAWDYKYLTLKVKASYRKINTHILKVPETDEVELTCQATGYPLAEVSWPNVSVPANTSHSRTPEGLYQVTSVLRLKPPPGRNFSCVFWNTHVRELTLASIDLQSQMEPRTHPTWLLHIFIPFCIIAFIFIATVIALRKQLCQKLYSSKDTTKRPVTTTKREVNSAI"}}}
{"variants_of": "B1", "conditions": "with pms2_human PMS2, P54278"}
{"variant": "F133L", "effect of a mutation on the interaction": "with no effect"}
{"variants_of": "B1", "conditions": "with pms2_human PMS2, P54278", "remark": "another data set of the same source"}
{"variant": "F133V", "effect of a mutation on the interaction": "with no effect"}
{"variants_of": "B1", "conditions": "with pms2_human PMS2, P54278", "remark": "another data set of the same source"}
{"variant": "Y87C", "effect of a mutation on the interaction": "with no effect"}
{"variants_of": "B1", "conditions": "with pms2_human PMS2, P54278", "remark": "another data set of the same source"}
{"variant": "F102C", "effect of a mutation on the interaction": "with no effect"}
{"variants_of": "B2", "conditions": "with errfi_human ERRFI1, Q9UJM3"}
{"variant": "Y87C", "effect of a mutation on the interaction": "with no effect"}
{"variants_of": "B2", "conditions": "with errfi_human ERRFI1, Q9UJM3", "remark": "another data set of the same source"}
{"variant": "F133L", "effect of a mutation on the interaction": "with no effect"}
{"variants_of": "B2", "conditions": "with errfi_human ERRFI1, Q9UJM3", "remark": "another data set of the same source"}
{"variant": "F133V", "effect of a mutation on the interaction": "with no effect"}
{"variants_of": "B2", "conditions": "with errfi_human ERRFI1, Q9UJM3", "remark": "another data set of the same source"}
{"variant": "F102C", "effect of a mutation on the interaction": "with no effect"}
{"variants_of": "B3", "conditions": "with nfac1_human NFATC1, O95644"}
{"variant": "F102C", "effect of a mutation on the interaction": "with no effect"}
{"variants_of": "B3", "conditions": "with nfac1_human NFATC1, O95644", "remark": "another data set of the same source"}
{"variant": "Y87C", "effect of a mutation on the interaction": "with no effect"}
{"variants_of": "B3", "conditions": "with nfac1_human NFATC1, O95644", "remark": "another data set of the same source"}
{"variant": "F133V", "effect of a mutation on the interaction": "with no effect"}
{"variants_of": "B3", "conditions": "with nfac1_human NFATC1, O95644", "remark": "another data set of the same source"}
{"variant": "F133L", "effect of a mutation on the interaction": "with no effect"}
{"variants_of": "B4", "conditions": "with fancf_human FANCF"}
{"variant": "F133V", "effect of a mutation on the interaction": "with no effect"}
{"variants_of": "B4", "conditions": "with fancf_human FANCF", "remark": "another data set of the same source"}
{"variant": "F133L", "effect of a mutation on the interaction": "with no effect"}
{"variants_of": "B4", "conditions": "with fancf_human FANCF", "remark": "another data set of the same source"}
{"variant": "Y87C", "effect of a mutation on the interaction": "causing an interaction"}
{"variants_of": "B4", "conditions": "with fancf_human FANCF", "remark": "another data set of the same source"}
{"variant": "F102C", "effect of a mutation on the interaction": "with no effect"}
{"variants_of": "B5", "conditions": "with mre11_human MRE11, P49959"}
{"variant": "F133V", "effect of a mutation on the interaction": "with no effect"}
{"variants_of": "B5", "conditions": "with mre11_human MRE11, P49959", "remark": "another data set of the same source"}
{"variant": "F133L", "effect of a mutation on the interaction": "with no effect"}
{"variants_of": "B5", "conditions": "with mre11_human MRE11, P49959", "remark": "another data set of the same source"}
{"variant": "F102C", "effect of a mutation on the interaction": "with no effect"}
{"variants_of": "B5", "conditions": "with mre11_human MRE11, P49959", "remark": "another data set of the same source"}
{"variant": "Y87C", "effect of a mutation on the interaction": "with no effect"}
{"variants_of": "B6", "conditions": "with pd1l2_human PDCD1LG2, Q9BQ51"}
{"variant": "Y87C", "effect of a mutation on the interaction": "with no effect"}
{"variants_of": "B6", "conditions": "with pd1l2_human PDCD1LG2, Q9BQ51", "remark": "another data set of the same source"}
{"variant": "F133L", "effect of a mutation on the interaction": "with no effect"}
{"variants_of": "B6", "conditions": "with pd1l2_human PDCD1LG2, Q9BQ51", "remark": "another data set of the same source"}
{"variant": "F133V", "effect of a mutation on the interaction": "with no effect"}
